The results in this text go back to the nanobody polyreactivity screen of Harvey et al. (2022).

The data set can be described thus: yeast display, Sf9 membrane polyspecificity reagent, FACS + sequencing; frameworks hold sequencing errors. The method, boiled down:
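Galactose-induced (36–48 hours) yeast carrying a synthetic nanobody display library were exposed to 10% biotinylated, detergent-solubilized Sf9 membrane reagent at 4 °C for 1 hour. FACS followed streptavidin microbead enrichment, using low and high (top ~1%) gates for expression (anti-HA) and reagent binding (streptavidin). Colony PCR, MiSeq 2 × 250 sequencing and CDR-length filtering followed. Labels for polyreactivity reflect the gate of origin.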
Take “QVQLVESAGGLVQAGGSLRLSCAASGFIFYSNAMGWYRQAPGKERELVAGISRGGSTYYADSVKGRFTISRDNAKNTVYLQMNSLKPEDTAVYYCAASPSSYGRYGYWGQGTQVTVSS”: the “polyreactivity (PSR sort gate)” value is listed as “low polyreactivity”.

For the sequence “QVQLVESAGGLVQAGGSLRLSCAASGFTFREYAMGWYRQAPGKERELVAVITSGDNTYYADSVKGRFTISRDNAKNTVYLQMNSLKPEDTAVYYCAKDYNRYYWPWVIRGYDYWGQGTQVTVSS”, the “polyreactivity (PSR sort gate)” value was “low polyreactivity”.

For “QVQLVESAGGLVQAGGSLRLSCAASGFTFYWYAMGWYRQAPGKEREFVAAIDQSGGSTYYADSVKGRFTISRDNAKNTVYLQMNSLKPEDTAVYYCAARYILWDGDSWTEFDYWGQGTQVTVSS”, the “polyreactivity (PSR sort gate)” value is recorded as “low polyreactivity”. For “QVQLVESAGGLVQAGGSLRLSCAASGITLSYNAMGWYRQAPGKERELVAAISARGGSTYYADSVKGRFTISRDPAKNTVYLQMYSLKPEDTAVYYCAAPRGWRQNKYDYWGQVTQVTVSS”, the “polyreactivity (PSR sort gate)” value is listed as “high polyreactivity”. In the case of “QVQLVESAGGLVQAGGSLRLSCAASGITYDHYAMGWYRQAPGKERELVARITGTGDSTYYADSVKGRFTISRDNAKNTVYLQMNSLKPEDTAVYYCAAVSYRQYYGWGNYWGLGTQVTVSS”, the “polyreactivity (PSR sort gate)” value is “low polyreactivity”. On to “QVQLVESAGGLVQAGGSLRLSCAASGLTYVPNAMGWYRQAPGKEREIVAAICNNGGRTYYADSVKGRFTISRDNAKNTVYLEMNSLKPEDTAVYYCAKYLSPGERHSYDYWGQGTQVTVSS”, for which the “polyreactivity (PSR sort gate)” value is given as “high polyreactivity”. With “QVQLVESAGGLVQAGGSLRLSCAASGNTFDPNAMGWYRQAPGKEREFVAAISTIGSSTYYADSVKGRFTISRDNAKYTVYLQMNSLNPEVTAVYYCAKGIYVVYGIDDYWGQGTQVTLSS”, the “polyreactivity (PSR sort gate)” value is “low polyreactivity”. As to “QVQLVESAGGLVQAGGSLRLSCAASGRIFGQYTMGWYRQAPGKERELDAAISSSGGRTYYADSVKGRFTISRDNAKNTVYLQMNSLKPEDTAVYYCAARDRPSPYYYWGQGTQVTVSS”, the “polyreactivity (PSR sort gate)” value was “high polyreactivity”. As to “QVQLVESAGGLVQAGGSLRLSCAASGRIFWLYAMGWYRQAPGKERELVASISQSGANTYYADSVKGRFTISRDNSKNNVYLQMNCLKPEYTSVDYCSSNRYDSYYFWVGYWGQGSQVTVSS”, the “polyreactivity (PSR sort gate)” value was “low polyreactivity”. Consider “QVQLVESAGGLVQAGGSLRLSCAASGRILPSNAMGWYRQAPGKERELVAGITSGGSTDYADSVKGRFTISRDNAKNTVYLQMNSLKPEDTGVFYCAADSRRYGVRFDYWGQGTQVTVSS”, for which the “polyreactivity (PSR sort gate)” value is listed as “low polyreactivity”. Consider “QVQLVESAGGLVQAGGSLRLSCAASGRTFGWYAMGWYRQAPGKERELVAAITSSDDSTYYADSVKGRFTISRDNAKNTVYLQMNSLKPEDTEVYYCNKVKYFARSAYGYWGLGTQVTVSS”, for which the “polyreactivity (PSR sort gate)” value is “low polyreactivity”.

As for “QVQLVESAGGLVQAGGSLRLSCAASGRTFHWYTMGWYRQAPGKEREFVAGINWSGARTYYADSVKGRFTISRDNAKNTVYLQMNSLKPEDTAVYYCAKRLWGIDFDYWGQGTQVTVSS”, the “polyreactivity (PSR sort gate)” value is on record as “high polyreactivity”. Regarding “QVQLVESAGGLVQAGGSLRLSCAASGRTFWSYAMGWSRQAPGKERELVAAINSGGSTYYADSVKGRFTISRDNAKITVYLQRNSLKPEDTAVYYCDADTWYGFDWGVGTQVTVSS”, the “polyreactivity (PSR sort gate)” value is given as “high polyreactivity”. “QVQLVESAGGLVQAGGSLRLSCAASGRTFYSYAMGWSRQAPGKEREFVAAITKSGGSTYYADSVKGRFTISRDNAKNTVYLQMNSLKPEDTAVYYCAAGLVATFSRPGRASYRYNYWGQGTQVTVSS”: the “polyreactivity (PSR sort gate)” value was “high polyreactivity”. Consider “QVQLVESAGGLVQAGGSLRLSCAASGRTITFNTMGLYRQAPGKERELVAGIDRGGSTNYADSVKGRFTISRDNAKNTVYLQMNSLKPEDTAVYYCAADPPGYVYGKRYYWGQGTQVTVSS”, for which the “polyreactivity (PSR sort gate)” value is “high polyreactivity”. As for “QVQLVESAGGLVQAGGSLRLSCAASGSIFNVYDMGWYRQAPGKERELVAAITWSGGRTYYADSVKGRFTISRDNAKNTVYLQMNSLKPEDTAVSSCSARRWWVKSWRRFDYWGQGTQVTVSS”, the entry is “high polyreactivity”; as for “QVQLVESAGGLVQAGGSLRLSCAASGSIFSDNPMGWYIQAPGKERALVASITNSGSTNYADSVKGRFTISRDNAKNTVYLQMNILKPEDTAVYYCAFSFLYTYDNWGQGTQVTVSS”, “low polyreactivity”. Take “QVQLVESAGGLVQAGGSLRLSCAASGSILDRYAMGWDRQAPGKERELVAAITYSSGRTYYADSVKGRFTISRDNAKNTVYLQMNSLKPEDTAVYYCAARPFKRSNGGGQYYYWGQGTQLTVSS”: the “polyreactivity (PSR sort gate)” value is listed as “high polyreactivity”. Take “QVQLVESAGGLVQAGGSLRLSCAASGSTFAIKAMGWYRQAPGKERELVAAISSSGSTNYADSVKGRFTISRDNAKNTVYLQMNSLKQEDTAVYYCAADRVWGTPQAYVPSHFDYWGQGTQVTVSS”: the “polyreactivity (PSR sort gate)” value is listed as “low polyreactivity”. Consider “QVQLVESAGGLVQAGGSLRLSCAASGSTFGKYAMGWDRHAPGKERELVAAISWSGGSTYYADSVKGRFTISRDNAKNTVYLQMNSLKPEDTAVYYCTVYRYDGDYWGQGTQVTVSS”, for which the “polyreactivity (PSR sort gate)” value is recorded as “high polyreactivity”. Turning to “QVQLVESAGGLVQAGGSLRLSCAASGSTFQWYAMGWSRQAPGKERELVAAIDSDGGTNYADSVKGRFTISRDNAKNTVYLQMNSLKPEDTAVYYCAVKPFYYGSEFDYWGQGTQVTVSS”, the “polyreactivity (PSR sort gate)” value is “low polyreactivity”.

For the sequence “QVQLVESAGGLVQAGGSLRLSCAASGSTFTGYAMGWYRQAPGKERELVAAITYSGVRTNYADSVKGRFTISRDNANNTVYLQMNSLKPEDTAVYYCNAAVVYVKMDYWGQGTQVTVSS”, the “polyreactivity (PSR sort gate)” value was “low polyreactivity”.

For “QVQLVESAGGLVQAGGSLRLSCAASGSTFTSYAMGWYRQAPGKERELVDAITRNGGTTYYADSVKGRFTISRDNAKNTVYLQMNSLKPEDTAVYYCNAPHYYYITSDRRFDYWGQGTQVTVSS”, the “polyreactivity (PSR sort gate)” value is reported as “low polyreactivity”. As for “QVQLVESAGGLVQAGGSLRLSCAASGSTFYTYTMGWYRQAPGKERELVAAISSSGGDTYYADSVKGRFTISRDNAKNTVYLQMNSLKPEDTAVYYCAAAGPYGAVWRNDYWGQGTQVTVSS”, the entry is “low polyreactivity”.

With “QVQLVESAGGLVQAGGSLRLSCAASGSTLYQYTMGWYRQAPGKERELVAAISRSGGRTYYADSVKGRFTISRDNAKNTVYLQMNSLKPEDTAVYYCAVDPGAYDSWGQGTQVTVSS”, the “polyreactivity (PSR sort gate)” value was “high polyreactivity”. “QVQLVESAGGLVQAGGSLRLSCAASGSTQVIYHMGWNRQAPGNERYIVAAITYGGGRTYYADSVKGRFTISSDNAKNTVYLQMNSLKPEDTAYYYCAAYSYYYTWNPGYWGQGTQVTVSS”: the “polyreactivity (PSR sort gate)” value is recorded as “high polyreactivity”. Consider “QVQLVESAGGLVQAGGSLRLSCAASGYIFYFYAMGWYRQAPGKERELVAAITSVGSTKYADSVKGRFTISRDNAKNTVYLQMNSLKPEDTAVYYCAARSWSGYGLYNYWGHGTQVTVSS”, for which the “polyreactivity (PSR sort gate)” value is “high polyreactivity”. As for “QVQLVESAGGLVQAGGSLRLSCAASGYTFDFYAMGWYRQAPGKERELVAAISKNDGTTYYADSVKGRFTISRDNAKNTVYLQMNSLKPEDTAVYYCAAESGYPVYTYVSSGDYWGQGTQVTVSS”, the entry is “low polyreactivity”; as for “QVQLVESAGGLVQAGGSLRLSCAASGYTFYRNAMGCYRQAPGKERELVAAISWRGGSTYYADSVKGRFTISRDNAKNTVYLQMNSLKPEDTAVYYCAAYFSYGGSTTGEEYWGQGTQVTVSS”, “high polyreactivity”; as for “QVQLVESAGGLVQAGGSLRLSCAATGFTFYTYAMGWYRQAPGKERELVADISSGGSTNYADSVKGRFTISRDNAKNTVYLQMNSLKPEDTAVYYSSAVYYFLDWYDYWGQGTQVNVSS”, “low polyreactivity”.

Turning to “QVQLVESAGGLVQAGGSLRLSCAATGSTVDRNGMGWYRQAPGKERELVASISGRGGSTYYADSVKGRFTISRDHAKNTVYLQMNRLKPEDTAVYYCAVRYGFFSRYNSWGQGTQVTVSS”, the “polyreactivity (PSR sort gate)” value was “high polyreactivity”. As for “QVQLVESAGGLVQAGGSLRLSCAAYGSIIKRNAMGWYRQAPRKERQLVATSSSGDGSTRYADSVKWRFTISRDNAKNTVYLQMNSLKPEDTAVYYCALDFTYTYYRWKNPYRIGHDYWGHGTQVTVSS”, the entry is “low polyreactivity”; as for “QVQLVESAGGLVQAGGSLRLSCAPSGRIFGRYAMGWYRHAPGKERELVAAISFNGGSTSYADSVNGRFTISRDNAKNTVYLQMNTLKTEYTAVYYCAAKYRGFNYWGQGTQVTVSS”, “high polyreactivity”; as for “QVQLVESAGGLVQAGGSLRLSCAPSGRIFLTNAMGWYRQAPGKERELVAAITSGGSTYYADSVKGRFTISRDNAKNTVYLQMNSLKPEDTAVYYCNADTDRYWPYEYDYWGQGTQVTVSS”, “low polyreactivity”. Then “QVQLVESAGGLVQAGGSLRLSCDASGRIFTIYAMGWYSQAPGKERELVAAIRSSGDRTYYADSVKGRFTISRDNAKNTVYLQMNSQKPEDTAVYYCAARTRGGYYWGQGTQVTVSS”, with “high polyreactivity”. As for “QVQLVESAGGLVQAGGSLRLSCDASGSILDSNAMGWYRQAHGKERELVAAITSGGSTYYADSVKGRFTISRDNAKNTVYLQMNSLKPEDTAVYYCAAVDIYKYYQYYAFPYYRYDSWGQGTQVTVSS”, the “polyreactivity (PSR sort gate)” value is given as “low polyreactivity”. “QVQLVESAGGLVQAGGSLRLSCDASGSTFVINAMGWYRPAPGKERELVAAISKSGGRTYYADSVKGRFTISRDNAKNTVYLQMNSLKPEDTAVYYCAAVSQRTRYGYWGQGTQVTVSS”: the “polyreactivity (PSR sort gate)” value is “high polyreactivity”. With “QVQLVESAGGLVQAGGSLRLSCHASGLTVRTYDMGWYRQEPGKERELVAAITTGGSTYYADSVKGRFSISRDNAKNTVYLQMNSLKPEDTAVYYCAADFIRYINRLLYDFWGQGTQVTVSS”, the “polyreactivity (PSR sort gate)” value is on record as “low polyreactivity”. As for “QVQLVESAGGLVQAGGSLRLSGSASGIIIASNGMGWYRQPPGKERELVAAISSGGSTNYADSVKGRFTISRDNAKNTVYLQMNSLKPEDTAVYYCADDRWYREYDYWGQGTQVTVSS”, the “polyreactivity (PSR sort gate)” value is reported as “low polyreactivity”.

Take “QVQLVESAGGLVQAGGSLSIICAASGFTFSPYTMGWYRKAPGKERELVAAINRRGVSTYYADSVKGRFTISRDNEKNTVYLQMNSLKPEDTAVYYCAAEWYYQYSIYRYGYWGQGTQVTVSS”: the “polyreactivity (PSR sort gate)” value was “low polyreactivity”.

“QVQLVESAGGLVQAGGSLSLICAASGSTFVVNALGWYRQAPGKERELVAAITTSGGSTYYADSVKGRFTISRDNAKNTVYLQMNSLKPEDTAVYYCAAETWGYYGYGVDYDYWGQGTQVTVSS”: the “polyreactivity (PSR sort gate)” value is “high polyreactivity”.
